# Data published in patent publication US20060045883A1, “Anti-cancer vaccines” (priority 2004, published 2006).
# Molecular target: HLA-A2.1 (HLA-A*0201) on the surface of T2 cells (human)
binder,measurement,value
"KLGEFYNQMM (modifications not checked) [Influenza B nucleoprotein peptide (aa 85-94; Flu), P04665 85-94]",Median Channel of Fluorescence of HLA-A2 Expression on T2,194
